Measurements taken from patent publication US20180339041A1 (Kyowa Kirin, published 2018).
Blank lines part the entries; values can stand above or below the binder they belong to.

How the values were obtained:
[1] = target: T1, C-terminally FLAG-tagged human Gas6 recombinant protein (hGas6-F) (human, UniProt Q14393 31-678, gamma-carboxylated glutamic acid residues in the Gla domain (producer cells co-express rat VKOR and human GGCX); positions not given); experiment: cell-based or functional assay
T1 sequence: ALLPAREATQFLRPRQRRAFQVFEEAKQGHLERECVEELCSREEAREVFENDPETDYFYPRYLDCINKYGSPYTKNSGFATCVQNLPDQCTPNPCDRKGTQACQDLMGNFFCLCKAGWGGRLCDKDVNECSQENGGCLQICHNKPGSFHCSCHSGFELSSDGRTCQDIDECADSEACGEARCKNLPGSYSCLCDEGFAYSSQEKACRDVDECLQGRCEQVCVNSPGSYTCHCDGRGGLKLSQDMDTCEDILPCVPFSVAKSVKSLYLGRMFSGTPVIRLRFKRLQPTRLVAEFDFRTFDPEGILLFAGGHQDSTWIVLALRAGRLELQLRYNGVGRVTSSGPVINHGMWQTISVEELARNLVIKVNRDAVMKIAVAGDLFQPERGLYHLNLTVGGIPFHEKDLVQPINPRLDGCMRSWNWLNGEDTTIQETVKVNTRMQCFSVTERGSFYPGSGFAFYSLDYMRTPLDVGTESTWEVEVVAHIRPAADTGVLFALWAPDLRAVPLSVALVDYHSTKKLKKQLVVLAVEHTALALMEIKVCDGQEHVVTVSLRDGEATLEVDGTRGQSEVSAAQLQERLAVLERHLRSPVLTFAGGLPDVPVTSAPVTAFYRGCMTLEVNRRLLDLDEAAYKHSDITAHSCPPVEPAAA

[2] = target: T1, C-terminally FLAG-tagged human Gas6 …; experiment: competitive ELISA, hAxl-hFc immobilised, 50 ng/mL hGas6-F
[3] = target: T2, C-terminally FLAG-tagged rat Gas6 recombinant protein (rGas6-F) (rat, UniProt Q63772 28-674, limits assumed, gamma-carboxylated glutamic acid residues in the Gla domain (producer cells co-express rat VKOR and human GGCX); positions not given); experiment: competition ELISA: rAxl-hFc coated; rGas6-F at 50 ng/mL final premixed with the antibody; bound Gas6-F detected with anti-FLAG M2-HRP; blocked partner rAxl-hFc (Examples 5(4) and 7) [B]
T2 construct: also called rat Gas6-F
T2 sequence (looked up): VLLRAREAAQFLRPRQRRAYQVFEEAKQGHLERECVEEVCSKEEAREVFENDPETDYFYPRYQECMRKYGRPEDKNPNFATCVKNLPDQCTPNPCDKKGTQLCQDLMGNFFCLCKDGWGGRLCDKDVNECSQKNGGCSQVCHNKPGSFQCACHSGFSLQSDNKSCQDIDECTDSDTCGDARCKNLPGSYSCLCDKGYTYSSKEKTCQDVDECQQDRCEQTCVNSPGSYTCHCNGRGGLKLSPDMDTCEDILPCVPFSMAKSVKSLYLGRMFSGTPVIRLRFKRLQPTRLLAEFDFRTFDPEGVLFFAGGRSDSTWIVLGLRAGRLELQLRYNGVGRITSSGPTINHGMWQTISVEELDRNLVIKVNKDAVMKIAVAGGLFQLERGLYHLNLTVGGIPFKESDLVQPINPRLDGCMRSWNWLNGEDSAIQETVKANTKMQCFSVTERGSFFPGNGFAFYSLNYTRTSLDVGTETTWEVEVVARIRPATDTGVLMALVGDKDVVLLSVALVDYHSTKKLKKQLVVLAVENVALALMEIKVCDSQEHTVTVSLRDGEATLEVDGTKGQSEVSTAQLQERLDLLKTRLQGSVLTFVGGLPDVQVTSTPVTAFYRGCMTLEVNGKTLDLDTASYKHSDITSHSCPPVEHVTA

[4] = target: T2, C-terminally FLAG-tagged rat Gas6 …; experiment: ELISA: rGas6-F (1 µg/mL) captured on coated anti-FLAG M2 antibody; biotinylated test antibody; streptavidin-HRP/TMB; absorbance 450-570 nm, N=2 (Example 6) [C]
Procedure: First, 2 μg/mL anti-FLAG antibody [Monoclonal ANTI-FLAG M2 antibody produced in mouse (manufactured by Sigma-Aldrich Co. LLC) diluted with PBS (manufactured by Nacalai Tesque, Inc.)] was dispensed at 50 μL/well to a 96-well plate for ELISA (manufactured by Nalge Nunc International), and the plate was left standing overnight at 4° C. for adsorption. After removal of the immobilization solution, 1% BSA-PBS (manufactured by Nacalai Tesque, Inc.) was added thereto at 300 μL/well, and the plate was left standing at room temperature for 1 hour for blocking and washed five times with Tween 20-PBS (manufactured by Wako Pure Chemical Industries Ltd.).
Each antibody solution was dispensed thereto at 50 μL/well, and the plate was left standing at room temperature for 1 hour. This plate was washed five times with Tween 20-PBS. Then, Streptavidin HRP Conjugate (manufactured by R&D Systems, Inc.) diluted 200-fold with 1% BSA-PBS was dispensed thereto at 50 μL/well, and the plate was left standing at room temperature for 1 hour. This plate was washed five times with Tween 20-PBS, and TMB (manufactured by Sigma-Aldrich Co. LLC) was added thereto at 50 μL/well and reacted. […] The absorbance at a sample wavelength of 450 nm and a reference wavelength of 570 nm (450 nm-570 nm) was measured using a plate reader.

antibody:Gas6 molar concentration ratio at complete inhibition of reporter activation [1]: 2 antibody:Gas6 molar ratio | antibody:Gas6 molar concentration ratio at complete inhibition [2]: 2 antibody:Gas6 molar ratio | IC50 (read off the curve) [3]: ~50 ng/mL | EC50 (read off the curve) [4]: ~5 ng/mL
B1: anti-human Gas6 mouse monoclonal antibody KM5320 (KM5320-mKG1 antibody) (antibody, V domains shown)
VH: QIQLVQSGPELKKPGETVKISCKASGYTFTNYGMNWVKQAPGKGLKWMGWINTETGEPTYSDDFKGRFAFSLETSATTAYLQINNLRNEDMATYFCAREDGYYGTLDYWGQGTSVTVSS
VL: SIVMTQTPKFLLVSAGDRVTITCKASQSVSNDVAWYQQKPGQSPKVLIYYASNRYTGVPDRFTGSGYGTDFTFTISTVQAEDLAVYFCQQDYSSPWTFGGGTKLEIK
notes: Hybridoma-derived mouse IgG1, kappa; also called KM5320 antibody

antibody:Gas6 molar concentration ratio at complete inhibition of reporter activation [1]: 2 antibody:Gas6 molar ratio | antibody:Gas6 molar concentration ratio at complete inhibition [2]: 0.5 antibody:Gas6 molar ratio | IC50 (read off the curve) [3]: ~30 ng/mL | EC50 (read off the curve) [4]: ~4 ng/mL
B2: anti-human Gas6 mouse monoclonal antibody KM5321 (KM5321-mKG1 antibody) (antibody, V domains shown)
VH: QIQLVQSGPELKKPGETVKISCRASGYTFTNYGMNWVKQAPGKGLKWMGWINTNTGEPTYTEEFKGRFAFSLETSATTAYLQINDLKNEDTATYFCARDEGWFVYWGQGTLITVSA
VL: ETTVTQSPASLSVATGEKVTIRCITSTDIDDDMNWYQQKPGEPPKLLISEGNTLRPGVPSRFSSSGYGTDFVFTIENTLSEDVADYYCLQTDSVPLTFGAGTKLELK
notes: Hybridoma-derived mouse IgG1, kappa; also called KM5321 antibody
